Series [1] concerns the target T1, alpha-thrombin (Homo sapiens, UniProt P00734;P00734 328-363;364-622). As to the kind of experiment: ELISA-based binding with competition; 100-fold excess unlabeled competitor as control; 20 mM Tris pH 7.5, 150 mM NaCl, 0.1% BSA, 0.1% Tween 20, 100 ug/mL sheared salmon sperm DNA, 1 h, room temperature; thrombin coated at 250 nM. On the technique in general: An ELISA detects its analyte on a solid surface through an enzyme-linked reagent.

For series [2], the target named is T1, alpha-thrombin. In words: competition; 100-fold excess over biotinylated AYA1809007; 20 mM Tris pH 7.5, 150 mM NaCl, 0.1% BSA, 0.1% Tween 20, 100 ug/mL sheared salmon sperm DNA, 1 h, room temperature; thrombin coated at 250 nM.
Series [3] has as its target T1, alpha-thrombin. In words: ELISA; 20 mM Tris pH 7.5, 150 mM NaCl, 0.1% BSA, 0.1% Tween 20, 100 ug/mL sheared salmon sperm DNA, 1 h, room temperature; thrombin coated at 250 nM.

The results in this text go back to paper PMC10526462.

What is called Kd is the free concentration of one partner at which half of the binding sites on the other are occupied at equilibrium, for simple one-to-one binding. Lower therefore signals higher affinity. GCGGTGTTGCTGGGGTTGGGAGGTTGGAGGAAGCAATCGC (structured_DNA) [AYA1809002] registered a Kd with alpha-thrombin [1] of 0.01 µM.

AGGGGCTCTAGGGTGGGTAGGATGGTGAGACCGCAGCGT (structured_DNA) [AYA1809007 unlabeled]: the binding result with alpha-thrombin [2] is “binds”.

On to AGGGGCTCTAGGGTGGGTAGGATGGTGAGACCGCAGCGT (structured_DNA) [AYA1809007], for which, in the series with alpha-thrombin [3], the binding result is listed as “binds”.

Take TCGTCAAGGTACGGTTGGGGGGGTGGGTGTTGACGTTGAA (structured_DNA) [AYA1809004]: the Kd with alpha-thrombin [1] came out at 0.013 µM. This lies in the double-digit nanomolar range.
